Assays:
[1] = target: PF3D7_0919900 recombinant protein, KSVSF to KSASA (Plasmodium falciparum); test: ELISA; plates coated with 25 pmol/well of each recombinant Pip in PBS overnight at 4 °C; biotin-PfPP1 4 pmol/well in solution
[2] = target: PF3D7_0220000 recombinant protein with a stop in the second position of the KKVRF motif (Plasmodium falciparum); test: as above

Q: Which decrease of the binding against the wild protein (100 %) [1] does the source give for “biotin labeled PfPP1 (from UniProt Q8ILV1 1-304) (enzyme)” here?
A: 70%

Q: And the decrease of the binding against the wild protein (100 %) [2]?
A: 86%

— article PMC4794898
